Measurements reported in patent publication US20250320281A1.

Legend:
Experiment in all cases: cell-based or functional assay
[1] = target: HIV-1 Env of pseudovirus MGRM-AE-003 (clade CRF01_AE) (HIV-1)
[2] = target: HIV-1 Env of isolate MGRM-D-019 (clade D pseudovirus) (HIV-1)
[3] = target: HIV-1 envelope glycoprotein (Env) of isolate 94UG103, clade A (HIV-1)
[4] = target: HIV-1 Env of isolate NL43, clade B, on pseudovirus (HIV-1)
[5] = target: HIV-1 Env of isolate 93TH305, clade B, on pseudovirus (HIV-1)
[6] = target: HIV-1 Env of pseudovirus MGRM-F1-022 (HIV-1)
[7] = target: HIV-1 Env of pseudovirus MGRM-AG-009 (clade CRF_AG) (HIV-1)
[8] = target: HIV-1 CMU02 envelope glycoprotein (Env) on pseudovirus (HIV-1)
[9] = target: HIV-1 94UG114 envelope glycoprotein (Env) on pseudovirus (HIV-1 (isolate 94UG114, clade D))
[10] = target: HIV-1 Env of isolate 92RW024 (clade A pseudovirus) (HIV-1)
[11] = target: HIV-1 Env of pseudovirus MGRM-G-015 (HIV-1, clade G isolate MGRM-G-015)
[12] = target: HIV-1 Env of pseudovirus MGRM-F1-018 (HIV-1)
[13] = target: HIV-1 NL43 envelope glycoprotein (Env) on pseudovirus (HIV-1)
[14] = target: HIV-1 envelope glycoprotein (Env) of isolate MGRM-A-010, clade A (HIV-1)
[15] = target: HIV-1 93IN905 envelope glycoprotein (Env) on pseudovirus (HIV-1)
[16] = target: HIV-1 Env of isolate MGRM-F1-022 (HIV-1)
[17] = target: HIV-1 Env of isolate 98CN006 (pseudovirus) (HIV-1)
[18] = target: HIV-1 Env of isolate MGRM-Chronic-B-002 (subtype B pseudovirus) (HIV-1)
[19] = target: HIV-1 Env of isolate 93IN905 (subtype C pseudovirus) (HIV-1)
[20] = target: HIV-1 JRFL Env (pseudovirus) (HIV-1)
[21] = target: HIV-1 Env of isolate MGRM-C-026 (pseudovirus) (HIV-1)
[22] = target: HIV-1 Env of isolate CMU02 (clade AE), on pseudovirus (HIV-1)
[23] = target: HIV-1 Env of isolate TRO.11 (subtype B pseudovirus) (HIV-1)
[24] = target: HIV-1 93UG077 Env (pseudovirus) (HIV-1)
[25] = target: HIV-1 Env of isolate MGRM-AE-004 (subtype AE) (HIV-1)
[26] = target: HIV-1 Env of isolate MGRM-G-024 (HIV-1)
[27] = target: HIV-1 Env of isolate 92TH021 (subtype AE) (HIV-1)
[28] = target: HIV-1 Env of isolate 98CN006 (HIV-1)
[29] = target: HIV-1 Env of isolate 6535.3 (HIV-1)

4980_N08 (PGT-143) (antibody), sequence (VH): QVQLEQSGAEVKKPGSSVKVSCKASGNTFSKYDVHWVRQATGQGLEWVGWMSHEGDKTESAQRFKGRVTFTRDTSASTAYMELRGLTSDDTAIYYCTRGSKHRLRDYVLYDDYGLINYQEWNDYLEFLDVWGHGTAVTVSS
4980_N08 (PGT-143) (antibody), sequence (VL): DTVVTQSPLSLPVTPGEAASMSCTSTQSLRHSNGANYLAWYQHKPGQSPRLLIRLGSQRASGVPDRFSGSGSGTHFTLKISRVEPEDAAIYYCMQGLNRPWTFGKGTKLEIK
4995_E20 (PGT-142) (antibody), sequence (VH): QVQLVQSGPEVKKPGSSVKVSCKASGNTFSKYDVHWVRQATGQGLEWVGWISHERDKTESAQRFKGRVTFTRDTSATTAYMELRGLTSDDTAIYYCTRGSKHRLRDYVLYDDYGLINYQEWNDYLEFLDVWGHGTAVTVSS
4995_E20 (PGT-142) (antibody), sequence (VL): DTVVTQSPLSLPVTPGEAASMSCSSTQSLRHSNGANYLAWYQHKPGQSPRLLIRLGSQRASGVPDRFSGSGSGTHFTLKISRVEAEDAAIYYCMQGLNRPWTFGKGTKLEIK
1443_C16 (PG16) (TCN-116) (antibody), sequence (VH): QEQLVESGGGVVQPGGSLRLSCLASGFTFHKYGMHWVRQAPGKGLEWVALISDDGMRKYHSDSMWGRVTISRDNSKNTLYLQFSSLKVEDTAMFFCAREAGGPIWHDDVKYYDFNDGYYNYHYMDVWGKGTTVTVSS
1443_C16 (PG16) (TCN-116) (antibody), sequence (VL): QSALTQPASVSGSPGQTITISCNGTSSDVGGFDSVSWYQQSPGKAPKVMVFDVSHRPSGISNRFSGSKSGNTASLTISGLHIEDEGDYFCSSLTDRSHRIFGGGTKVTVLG
4970_K22 (PGT-144) (antibody), sequence (VH): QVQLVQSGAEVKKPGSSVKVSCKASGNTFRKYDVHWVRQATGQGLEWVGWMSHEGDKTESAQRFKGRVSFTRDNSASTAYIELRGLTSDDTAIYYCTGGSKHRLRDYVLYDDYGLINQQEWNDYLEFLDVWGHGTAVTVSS
4970_K22 (PGT-144) (antibody), sequence (VL): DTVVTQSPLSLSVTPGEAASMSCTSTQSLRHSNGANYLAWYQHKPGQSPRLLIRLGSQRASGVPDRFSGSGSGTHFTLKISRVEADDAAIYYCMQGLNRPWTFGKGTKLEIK
4993_K13 (PGT-141) (antibody), sequence (VH): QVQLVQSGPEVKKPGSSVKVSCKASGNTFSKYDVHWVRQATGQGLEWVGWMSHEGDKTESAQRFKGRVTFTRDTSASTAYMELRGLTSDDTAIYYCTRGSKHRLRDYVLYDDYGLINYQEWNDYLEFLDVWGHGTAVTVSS

Row | Substance | IC50 (µg/ml), pseudovirus neutralization [2] [µg/mL] | IC50 (µg/ml), pseudovirus neutralization [3] [µg/mL] | IC50 (µg/ml), pseudovirus neutralization [4] [µg/mL] | IC50 (µg/ml), pseudovirus neutralization [5] [µg/mL] | IC50 (µg/ml), pseudovirus neutralization [6] [µg/mL] | IC50, pseudovirus neutralization [8] [µg/mL] | IC50 (µg/ml), pseudovirus neutralization [10] [µg/mL] | IC50 (µg/ml), pseudovirus neutralization [11] [µg/mL] | IC50 (µg/ml), pseudovirus neutralization [12] [µg/mL] | IC50, pseudovirus neutralization [13] [µg/mL] | IC50, pseudovirus neutralization [15] [µg/mL] | IC50 (µg/mL), pseudovirus neutralization [16] [µg/mL] | IC50, pseudovirus neutralization [17] [µg/mL] | IC50 (µg/mL), pseudovirus neutralization [18] [µg/mL] | IC50 (µg/mL), pseudovirus neutralization [19] [µg/mL] | IC50 (µg/mL), pseudovirus neutralization [23] [µg/mL] | IC50 (µg/mL), pseudovirus neutralization [26] [µg/mL] | other results
1 | 2G12 (antibody) | > 50 | 48.1 | 0.49 | 0.55 | > 50 | > 50 | > 50 | > 50 | > 50 | 0.75 | > 50 |  |  |  |  |  |  | IC50 [1]: > 50 µg/mL; IC50 [7]: > 50 µg/mL; IC50 (µg/ml), pseudovirus neutralization [9]: 13.9 µg/mL; IC50 (µg/ml), pseudovirus neutralization [14]: 17 µg/mL
2 | 1443_C16 (PG16) (TCN-116) (antibody) | 0.01 | 0.04 | 0.02 | 19.3 | 0.08 | > 50 | 0.08 | 5.33 | 0.01 | < 0.0025 | 0.102 |  |  |  |  |  |  | IC50 [1]: 0.03 µg/mL; IC50 [7]: > 50 µg/mL; IC50 (µg/ml), pseudovirus neutralization [9]: > 50 µg/mL; IC50 (µg/ml), pseudovirus neutralization [14]: 0.004 µg/mL
3 | 5123_A06 (PGT-125) (antibody) |  |  |  |  |  |  |  |  |  |  |  | > 50 | 0.201 | 0.064 | 0.009 | 0.111 |  | neutralization IC50 (pseudovirus) [20]: 0.0156 µg/mL; Polyclonal Transfectant Neutralization Index [21]: 88.3; Primary Neutralization Index (B cell culture supernatant) [21]: 512; IC50, pseudovirus neutralization [22]: > 10 µg/mL; neutralization IC50 (pseudovirus) [24]: 0.0262 µg/mL
4 | 2F5 (antibody) | 0.14 | 1.92 | 2.02 | 7.61 | 1.26 | 0.38 | 8.22 | 0.43 | 3.91 | 2.41 | > 50 |  |  |  |  |  |  | IC50 [1]: 0.24 µg/mL; IC50 [7]: 24.8 µg/mL; IC50 (µg/ml), pseudovirus neutralization [9]: > 50 µg/mL; IC50 (µg/ml), pseudovirus neutralization [14]: 20.8 µg/mL
5 | 4E10 (antibody) | 0.04 | 4.97 | 4.67 | 12.3 | 1.01 | 0.59 | 8.88 | 1.07 | 3.6 | 4.95 | 1.55 |  |  |  |  |  |  | IC50 [1]: 0.34 µg/mL; IC50 [7]: 31.4 µg/mL; IC50 (µg/ml), pseudovirus neutralization [9]: 9.72 µg/mL; IC50 (µg/ml), pseudovirus neutralization [14]: 14.4 µg/mL
6 | 4993_K13 (PGT-141) (antibody) |  |  |  |  |  |  |  |  |  |  |  |  |  |  |  |  | 0.051 | IC50 (µg/mL), pseudovirus neutralization [25]: 0.001 µg/mL; IC50 (neutralizing activity, pseudovirus) [20]: > 10 µg/mL; IC50 (µg/mL), pseudovirus neutralization [27]: 0.001 µg/mL; IC50 (neutralizing activity, pseudovirus) [24]: > 10 µg/mL
7 | 4838_L06 (PGT-121) (antibody) |  |  |  |  |  |  |  |  |  |  |  | 0.104 | 0.01 | 0.386 | 0.005 | 0.008 |  | IC50, pseudovirus neutralization [22]: > 10 µg/mL
8 | 5141_B17 (PGT-126) (antibody) |  |  |  |  |  | > 10 |  |  |  | > 10 | 0.0194 | > 50 | 0.046 | 0.078 | 0.015 | 0.041 |  | IC80 (pseudovirus neutralization) [8]: > 10 µg/mL; IC90 (pseudovirus neutralization) [8]: > 10 µg/mL; IC95 (pseudovirus neutralization) [8]: > 10 µg/mL; neutralization IC50 (pseudovirus) [20]: 0.014 µg/mL; Polyclonal Transfectant Neutralization Index [21]: 102; Primary Neutralization Index (B cell culture supernatant) [21]: 654; IC50, pseudovirus neutralization [22]: > 10 µg/mL; IC80 (pseudovirus neutralization) [13]: > 10 µg/mL; IC90 (pseudovirus neutralization) [13]: > 10 µg/mL; IC95 (pseudovirus neutralization) [13]: > 10 µg/mL; neutralization IC50 (pseudovirus) [24]: 0.0256 µg/mL; IC80 (pseudovirus neutralization) [15]: 0.0676 µg/mL; IC90 (pseudovirus neutralization) [15]: 0.14 µg/mL; IC95 (pseudovirus neutralization) [15]: 0.275 µg/mL
9 | 5145_B14 (PGT-127) (antibody) |  |  |  |  |  |  |  |  |  |  |  | > 50 | 0.067 | 0.279 | 0.024 | 0.079 |  | Polyclonal Transfectant Neutralization Index [21]: 2.62; Primary Neutralization Index (B cell culture supernatant) [21]: 86.9
10 | 4980_N08 (PGT-143) (antibody) |  |  |  |  |  |  |  |  |  |  |  |  |  |  |  |  | 0.048 | IC50 (µg/mL), pseudovirus neutralization [25]: 0.002 µg/mL; IC50 (neutralizing activity, pseudovirus) [20]: > 10 µg/mL; IC50 (µg/mL), pseudovirus neutralization [27]: 0.003 µg/mL; IC50 (neutralizing activity, pseudovirus) [24]: > 10 µg/mL
11 | 4995_E20 (PGT-142) (antibody) |  |  |  |  |  |  |  |  |  |  |  |  |  |  |  |  | 0.054 | IC50 (µg/mL), pseudovirus neutralization [25]: 0.001 µg/mL; IC50 (neutralizing activity, pseudovirus) [20]: > 10 µg/mL; IC50 (µg/mL), pseudovirus neutralization [27]: 0.002 µg/mL; IC50 (neutralizing activity, pseudovirus) [24]: > 10 µg/mL
12 | 4858_P08 (PGT-123) (antibody) |  |  |  |  |  |  |  |  |  |  |  | 0.075 | 0.008 | 0.234 | 0.004 | 0.008 |  | neutralization IC50 [8]: > 10 µg/mL; neutralization IC80 [8]: > 10 µg/mL; neutralization IC90 [8]: > 10 µg/mL; neutralization IC95 [8]: > 10 µg/mL; neutralization IC50 (pseudovirus) [20]: 0.0283 µg/mL; Primary Neutralization Index (B cell culture supernatant) [21]: 33.8; IC50, pseudovirus neutralization [22]: > 10 µg/mL; neutralization IC50 [13]: > 10 µg/mL; neutralization IC80 [13]: > 10 µg/mL; neutralization IC90 [13]: > 10 µg/mL; neutralization IC95 [13]: > 10 µg/mL; neutralization IC50 (pseudovirus) [24]: 0.0303 µg/mL; neutralization IC50 [15]: 0.0071 µg/mL; neutralization IC80 [15]: 0.0281 µg/mL; neutralization IC90 [15]: 0.0625 µg/mL; neutralization IC95 [15]: 0.131 µg/mL
13 | VRC01 (antibody) |  |  |  |  |  |  |  |  |  |  |  |  |  |  |  |  | 0.025 | IC50 [16]: 0.055 µg/mL; IC50 (µg/mL), pseudovirus neutralization [25]: 0.187 µg/mL; IC50 (µg/mL), pseudovirus neutralization [27]: 0.616 µg/mL
14 | PGV04 (antibody) |  |  |  |  |  |  |  |  |  |  |  |  |  |  |  |  | 0.033 | IC50 [28]: 1.32 µg/mL; IC50 (µg/mL), pseudovirus neutralization [29]: 0.757 µg/mL
15 | 4877_D15 (PGT-122) (antibody) |  |  |  |  |  |  |  |  |  |  |  | 0.277 | 0.021 | 1.8 | 0.013 | 0.011 |  | neutralization IC50 (pseudovirus) [20]: 0.0471 µg/mL; IC50, pseudovirus neutralization [22]: > 10 µg/mL; neutralization IC50 (pseudovirus) [24]: 0.191 µg/mL
16 | b12 (antibody) | > 50 | 6.92 | 0.17 | 4.17 | > 50 | 4.25 | > 50 | > 50 | > 50 | 0.06 | 34.1 |  |  |  |  |  |  | IC50 [1]: > 50 µg/mL; IC50 [7]: > 50 µg/mL; IC50 (µg/ml), pseudovirus neutralization [9]: > 50 µg/mL; IC50 (µg/ml), pseudovirus neutralization [14]: > 50 µg/mL
17 | 4970_K22 (PGT-144) (antibody) |  |  |  |  |  |  |  |  |  |  |  |  |  |  |  |  | 7.92 | IC50 (µg/mL), pseudovirus neutralization [25]: 0.104 µg/mL; IC50 (neutralizing activity, pseudovirus) [20]: > 10 µg/mL; IC50 (µg/mL), pseudovirus neutralization [27]: 0.052 µg/mL; IC50 (neutralizing activity, pseudovirus) [24]: > 10 µg/mL
18 | 1496_C09 (PG9) (TCN-109) (antibody) | 0.03 | 0.24 | 0.32 | 2.08 | 0.06 |  | 0.18 | 1.51 | 0.03 |  |  |  |  |  |  |  | 0.163 | IC50 (µg/mL), pseudovirus neutralization [29]: 1.05 µg/mL
